Target: endogenous CDK9 (cyclin dependent kinase 9, kinase of pTEFb) (human (endogenous in HEK293T, SEM and …, UniProt P50750 1-372))
Assay: cell-based or functional assay

Chain of endogenous CDK9 (cyclin dependent kinase 9, kinase of pTEFb) (human (P50750 whole entry): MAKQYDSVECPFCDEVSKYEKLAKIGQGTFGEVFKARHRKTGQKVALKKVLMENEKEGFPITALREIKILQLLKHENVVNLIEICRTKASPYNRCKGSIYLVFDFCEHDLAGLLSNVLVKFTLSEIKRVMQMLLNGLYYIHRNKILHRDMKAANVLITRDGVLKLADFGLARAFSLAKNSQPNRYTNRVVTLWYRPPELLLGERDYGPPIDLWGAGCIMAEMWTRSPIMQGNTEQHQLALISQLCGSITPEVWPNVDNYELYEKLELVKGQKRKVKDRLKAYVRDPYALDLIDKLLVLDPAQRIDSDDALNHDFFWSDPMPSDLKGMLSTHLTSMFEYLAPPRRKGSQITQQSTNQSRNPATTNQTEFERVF

luciferase in the RNA tethering assay (TAR/IIb reporter) of Rev-ENL in 293T cells, relative to Rev alone; contact with pTEFb indirect: ~6 fold
B1: ENL (eleven nineteen leukemia protein), full-length two-hybrid fusion (natural protein, human, UniProt Q03111 1-559, looked up)
chain: MDNQCTVQVRLELGHRAQLRKKPTTEGFTHDWMVFVRGPEQCDIQHFVEKVVFWLHDSFPKPRRVCKEPPYKVEESGYAGFIMPIEVHFKNKEEPRKVCFTYDLFLNLEGNPPVNHLRCEKLTFNNPTTEFRYKLLRAGGVMVMPEGADTVSRPSPDYPMLPTIPLSAFSDPKKTKPSHGSKDANKESSKTSKPHKVTKEHRERPRKDSESKSSSKELEREQAKSSKDTSRKLGEGRLPKEEKAPPPKAAFKEPKMALKETKLESTSPKGGPPPPPPPPPRASSKRPATADSPKPSAKKQKKSSSKGSRSAPGTSPRTSSSSSFSDKKPAKDKSSTRGEKVKAESEPREAKKALEVEESNSEDEASFKSESAQSSPSNSSSSSDSSSDSDFEPSQNHSQGPLRSMVEDLQSEESDEDDSSSGEEAAGKTNPGRDSRLSFSDSESDNSADSSLPSREPPPPQKPPPPNSKVSGRRSPESCSKPEKILKKGTYDKAYTDELVELHRRLMALRERNVLQQIVNLIEETGHFNVTNTTFDFDLFSLDETTVRKLQSCLEAVAT

Source: article PMC2774266, “Misguided Transcriptional Elongation Causes Mixed Lineage Leukemia” (PLoS Biology, 2009)
